Measured values: patent US20090004163, “METHOD OF ENHANCING PROLIFERATION AND/OR HEMATOPOIETIC DIFFERENTIATION OF STEM CELLS” (THE CHILDREN'S MEDICAL CENTER CORPORATION, published 2009)

Target: Cdx4 F170L (kggtl240) (Danio rerio, UniProt A8KBT9 A8KBT9:1-270, F170L)
Experiment: EMSA; mutation prevents binding to cdx4 consensus site
Conditions: tags: TNT SP6 IVT (Promega)

Cdx4 F170L (kggtl240), sequence (A8KBT9 entry or part of it F170L | F170L F170L, one chain of several): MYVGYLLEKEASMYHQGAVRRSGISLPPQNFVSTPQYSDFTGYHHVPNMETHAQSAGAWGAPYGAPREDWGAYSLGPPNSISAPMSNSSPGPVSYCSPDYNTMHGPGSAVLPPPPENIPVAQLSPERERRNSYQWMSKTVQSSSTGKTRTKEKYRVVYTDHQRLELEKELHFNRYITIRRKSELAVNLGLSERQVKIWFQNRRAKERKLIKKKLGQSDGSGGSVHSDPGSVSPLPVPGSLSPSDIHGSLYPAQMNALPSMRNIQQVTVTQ

B1: consensus cdx binding site probe (dsDNA)
DNA 1: GAGAAATTTATATTGT
DNA 2: ACAATATAAATTTCTC
Does B1 bind?
Result: no binding
